Laboratory results as given in US20140093540A1 (published 2014).

Experiments:
[1] = target: P. falciparum invasion ligand Rh5 (of the parasites in the invasion assays) (Plasmodium falciparum); experiment: cell-based or functional assay
[2] = target: human BSG on erythrocytes (human) (UniProt P35613); experiment: cell-based or functional assay
[3] = target: BSG-SCd4d3+4bio (human; rat) (UniProt P35613); experiment: SPR (BIAcore T100, 37° C.), kinetic analysis at 100 µl/min, global 1:1 fit
[4] = target: BSG-L bait (biotinylated ectodomain of the long, three domain isoform of BASIGIN) (human; rat) (UniProt P35613); experiment: SPR (BIAcore T100, 37° C.), Rh5 injected over the immobilised three domain isoform of BSG
[5] = target: BSG-SCd4d3+4bio (human; rat) (UniProt P35613); experiment: SPR (BIAcore T100, 37° C.), Rh5 injected over BSG-S captured on streptavidin, equilibrium, non-linear curve fit
[6] = target: T1, biotinylated CD4 domains 3+4 alone (negative control) (rat, UniProt P05540 207-394, enzymatically biotinylated on the C-terminal biotinylation sequence); experiment: flow cytometry, protein-coated fluorescent microbeads on human erythrocytes
T1 construct: domain: domains 3 and 4; Immobilised on streptavidin-coated Nile Red fluorescent microbeads in the assay; also called Cd4d3+4; CD4-coated microbeads
T1 sequence: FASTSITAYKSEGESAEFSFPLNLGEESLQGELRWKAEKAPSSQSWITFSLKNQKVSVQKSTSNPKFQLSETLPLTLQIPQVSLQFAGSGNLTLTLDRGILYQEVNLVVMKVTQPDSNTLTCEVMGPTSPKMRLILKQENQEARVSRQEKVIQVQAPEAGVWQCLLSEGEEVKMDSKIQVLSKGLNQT

Chain of human BSG on erythrocytes (human) (P35613 22-385): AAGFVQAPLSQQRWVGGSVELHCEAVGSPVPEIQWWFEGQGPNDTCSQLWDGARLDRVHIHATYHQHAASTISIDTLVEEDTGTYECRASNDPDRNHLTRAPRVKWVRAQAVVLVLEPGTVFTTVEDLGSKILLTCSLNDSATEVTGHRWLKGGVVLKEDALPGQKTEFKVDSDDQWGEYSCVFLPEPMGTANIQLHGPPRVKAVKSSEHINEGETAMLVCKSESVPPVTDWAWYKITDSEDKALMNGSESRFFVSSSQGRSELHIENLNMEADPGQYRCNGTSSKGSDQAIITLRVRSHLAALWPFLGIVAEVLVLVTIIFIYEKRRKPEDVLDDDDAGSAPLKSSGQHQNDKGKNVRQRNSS

BSG-S-Cd4d3+4-COMP-His (from UniProt P35613 138-325; P05540 207-394; P35444 28-72) (receptor)
inhibition of erythrocyte invasion, Dd2 P. falciparum strain, IC50 [1]: 1000 nM

MEM-M6/6 (antibody)
concentration that prevented all detectable invasion, 3D7 strain, microscopy [2]: > 10 µg/mL

PfRh5Cd4d3+4-6H (from UniProt P05540 207-394) (ligand)
interaction half-life [3]: 2.9 s
koff [3]: 0.24 s⁻¹
kon [3]: 225000 M⁻¹ s⁻¹
Kd [4]: 710 nM
koff [4]: 0.144 s⁻¹
Kd [5]: 1140 nM

B1: GLYCOPHORIN A (GYPA) on human erythrocytes (receptor)
chain: LSTTEVAMHTSTSSSVTKSYISSQTNDTHKRDTYAATPRAHEVSEISVRTVYPPEEETGERVQLAHHFSEPEITLIIFGVMAGVIGTILLISYGIRRLIKKSPSDVKPLPSPDTDVPLSSVEIENPETSDQ
modifications: sialylated (binding was lost after neuraminidase treatment of the cells)
notes: whole, on cells; also called native GYPA
binding result [6]: no binding
